Assay results published in patent US7070788 (US Dept. of Health and Human Services, dated 2006).

Key:
[1] = biological target: human TSH receptor (CHO-JP09 cells) (human, UniProt P16473 21-764); assay: cell-based or functional assay
[2] = biological target: hCG (LH/CG) receptor of MA-10 transformed murine Leydig cells (murine, UniProt P30730 27-700); assay: cell-based or functional assay
hCG (LH/CG) receptor of MA-10 transformed murine Leydig cells, sequence (P30730 27-700): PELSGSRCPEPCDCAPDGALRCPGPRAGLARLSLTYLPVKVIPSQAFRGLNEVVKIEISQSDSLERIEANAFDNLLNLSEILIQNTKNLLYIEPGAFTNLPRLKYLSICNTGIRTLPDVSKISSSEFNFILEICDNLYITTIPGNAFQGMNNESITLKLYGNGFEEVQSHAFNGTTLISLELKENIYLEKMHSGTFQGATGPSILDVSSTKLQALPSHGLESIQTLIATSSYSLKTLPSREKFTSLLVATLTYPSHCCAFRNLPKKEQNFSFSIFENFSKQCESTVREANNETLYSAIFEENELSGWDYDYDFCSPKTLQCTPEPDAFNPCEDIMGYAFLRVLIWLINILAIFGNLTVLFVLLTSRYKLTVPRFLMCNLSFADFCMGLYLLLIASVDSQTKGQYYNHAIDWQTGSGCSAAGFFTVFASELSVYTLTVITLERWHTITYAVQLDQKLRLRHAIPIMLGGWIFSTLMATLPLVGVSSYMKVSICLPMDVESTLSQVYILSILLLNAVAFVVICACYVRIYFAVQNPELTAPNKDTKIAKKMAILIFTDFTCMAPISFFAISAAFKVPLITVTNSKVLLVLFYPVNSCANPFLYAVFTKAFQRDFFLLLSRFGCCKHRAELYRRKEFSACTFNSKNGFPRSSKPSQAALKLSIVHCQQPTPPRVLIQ

cAMP stimulation in JP09 cells, EC50 [1] [ng/mL] | cAMP stimulation in JP09 cells, Relative potency (WT = 1) [1] | Progesterone synthesis in MA10 cells, EC50 [2] [ng/mL] | Progesterone synthesis in MA10 cells, Max (%) [2] | Binder
6.7 | 1 fold (WT = 1) |  |  | wild-type human thyroid stimulating hormone (ligand) chain 1: not shown chain 2: FCIPTEYTMHIERRECAYCLTINTTICAGYCMTRDINGKLFLPKYALSQDVCTYRDFIYRTVEIPGCPLHVAPYFSYPVALSCKCGKCNTDYSDCIHEAIKTNYCTKPQKSY
 |  | 6.9 | 100 % of WT-hCG | wild-type human chorionic gonadotropin (ligand) chain 1: not shown chain 2: SKEPLRPRCRPINATLAVEKEGCPVCITVNTTICAGYCPTMTRVLQGVLPALPQVVCNYRDVRFESIRLPGCPRGVNPVVSYAVALSCQCALCRRSTTDCGGPKDHPLTCDDPRFQDSSSSKAPPPSLPSPSRLPGPSDTPILPQ
